Measurements from patent publication US20250320281A1.

What was measured:
Assay in all cases: cell-based or functional assay
[1] = target: HIV-1 92BR020 Env (pseudovirus, clade B) (HIV-1)
[2] = target: HIV-1 92RW020 Env (pseudovirus, clade A) (HIV-1)
[3] = target: HIV-1 APV6 Env (pseudovirus, clade B) (HIV-1)
[4] = target: HIV-1 Env of isolate 97ZA012 (HIV-1)
[5] = target: HIV-1 Env of isolate CAAN.A2 (subtype B pseudovirus) (HIV-1)
[6] = target: HIV-1 Env of isolate MGRM-AE-007 (HIV-1)
[7] = target: HIV-1 Env of isolate MGRM-AG-011 (HIV-1)
[8] = target: HIV-1 Env of isolate MGRM-Chronic-B-018 (subtype B pseudovirus) (HIV-1)
[9] = target: HIV-1 Env of isolate MGRM-D-014 (pseudovirus) (HIV-1)
[10] = target: HIV-1 Env of isolate MGRM-D-021 (pseudovirus) (HIV-1)
[11] = target: HIV-1 Env of isolate MGRM-F1-021 (HIV-1)
[12] = target: HIV-1 Env of isolate MGRM-F1-023 (HIV-1)
[13] = target: HIV-1 Env of isolate SC422661.8 (subtype B pseudovirus) (HIV-1)
[14] = target: HIV-1 Env of isolate TRJ04551.58 (subtype B pseudovirus) (HIV-1)
[15] = target: HIV-1 JRFL Env (pseudovirus, clade B) (HIV-1)
[16] = target: HIV-1 MGRM-C-026 Env (pseudovirus, clade C) (HIV-1)
[17] = target: HIV-1 Env of isolate 92UG001 (HIV-1)
[18] = target: HIV-1 Env of isolate 92UG037 (HIV-1)
[19] = target: HIV-1 Env of isolate 93IN905 (subtype C) (HIV-1)
[20] = target: HIV-1 Env of isolate 93MW959 (subtype C) (HIV-1)
[21] = target: HIV-1 Env of isolate MG RM-D-005 (HIV-1)
[22] = target: HIV-1 Env of isolate MGRM-AG-011 (subtype AG) (HIV-1)
[23] = target: HIV-1 Env of isolate MGRM-Chronic-B-002 (subtype B) (HIV-1)
[24] = target: HIV-1 envelope glycoprotein (Env) of isolate MGRM-C-022 (HIV-1)
[25] = target: HIV-1 Env of isolate MGRM-G-019 (HIV-1)
[26] = target: HIV-1 92UG005 envelope glycoprotein (Env) on pseudovirus (HIV-1)
[27] = target: HIV-1 94UG103 envelope glycoprotein (Env) on pseudovirus (HIV-1)
[28] = target: HIV-1 Env of isolate APV_17, clade B, on pseudovirus (HIV-1)
[29] = target: HIV-1 Env of isolate MGRM-D-004 (clade D pseudovirus) (HIV-1)
[30] = target: HIV-1 Env of isolate MGRM-D-008 (clade D pseudovirus) (HIV-1)
[31] = target: HIV-1 Env of isolate MGRM-D-016 (clade D pseudovirus) (HIV-1)
[32] = target: HIV-1 Env of isolate MGRM-D-026 (clade D pseudovirus) (HIV-1)
[33] = target: HIV-1 Env of isolate SC422661.8 (Acute), clade B, on pseudovirus (HIV-1)
[34] = target: HIV-1 Env of pseudovirus MGRM-F1-012 (HIV-1)
[35] = target: HIV-1 Env of pseudovirus MGRM-G-017 (HIV-1, clade G isolate MGRM-G-017)
[36] = target: HIV-1 Env of pseudovirus MGRM-G-024 (HIV-1, clade G isolate MGRM-G-024)
[37] = target: HIV-1 Env of pseudovirus MGRM-G-027 (HIV-1, clade G isolate MGRM-G-027)
[38] = target: HIV-1 envelope glycoprotein (Env) of isolate 94KE105, listed under clade A (HIV-1)
[39] = target: HIV-1 envelope glycoprotein (Env) of isolate MGRM-A-007, clade A (HIV-1)

Sequence of 5345_I01 (PGT-137) (antibody) (VH): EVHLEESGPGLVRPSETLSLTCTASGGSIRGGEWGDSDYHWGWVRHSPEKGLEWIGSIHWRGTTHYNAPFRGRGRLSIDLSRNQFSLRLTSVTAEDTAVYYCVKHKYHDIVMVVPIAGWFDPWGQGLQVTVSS
Sequence of 5345_I01 (PGT-137) (antibody) (VL): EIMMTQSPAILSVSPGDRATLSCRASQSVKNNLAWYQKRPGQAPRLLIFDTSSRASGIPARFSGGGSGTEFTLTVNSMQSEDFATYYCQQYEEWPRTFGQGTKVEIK
Sequence of 4995_E20 (PGT-142) (antibody) (VH): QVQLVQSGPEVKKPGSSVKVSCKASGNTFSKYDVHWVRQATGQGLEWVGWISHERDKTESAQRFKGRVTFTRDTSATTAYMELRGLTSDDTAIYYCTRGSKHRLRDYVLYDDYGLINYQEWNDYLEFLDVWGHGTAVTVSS
Sequence of 4995_E20 (PGT-142) (antibody) (VL): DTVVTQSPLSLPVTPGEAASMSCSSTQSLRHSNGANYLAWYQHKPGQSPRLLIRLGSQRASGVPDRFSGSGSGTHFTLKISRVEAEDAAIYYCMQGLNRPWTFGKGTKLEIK
Sequence of 4980_N08 (PGT-143) (antibody) (VH): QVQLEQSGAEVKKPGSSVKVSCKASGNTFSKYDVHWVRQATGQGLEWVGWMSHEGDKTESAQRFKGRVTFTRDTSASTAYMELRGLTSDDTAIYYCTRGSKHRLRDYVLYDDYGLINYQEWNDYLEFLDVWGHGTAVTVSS
Sequence of 4980_N08 (PGT-143) (antibody) (VL): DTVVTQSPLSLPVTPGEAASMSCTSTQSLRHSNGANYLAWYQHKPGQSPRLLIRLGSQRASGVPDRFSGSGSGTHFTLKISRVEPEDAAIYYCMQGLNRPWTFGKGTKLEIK
Sequence of 4970_K22 (PGT-144) (antibody) (VH): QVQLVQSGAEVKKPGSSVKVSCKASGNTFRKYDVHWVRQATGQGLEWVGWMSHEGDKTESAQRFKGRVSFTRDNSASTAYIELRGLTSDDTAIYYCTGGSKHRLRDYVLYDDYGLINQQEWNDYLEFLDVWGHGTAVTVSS
Sequence of 4970_K22 (PGT-144) (antibody) (VL): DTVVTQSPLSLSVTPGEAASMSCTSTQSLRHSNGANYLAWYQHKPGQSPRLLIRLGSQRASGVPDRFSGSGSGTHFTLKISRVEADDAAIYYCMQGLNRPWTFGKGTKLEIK
Sequence of 4993_K13 (PGT-141) (antibody) (VH): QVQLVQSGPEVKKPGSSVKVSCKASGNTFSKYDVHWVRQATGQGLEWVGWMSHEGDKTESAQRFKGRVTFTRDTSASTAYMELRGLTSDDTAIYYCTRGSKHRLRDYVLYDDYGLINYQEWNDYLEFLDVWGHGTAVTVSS

Substance	IC50 neutralization [1]	IC50 neutralization [2]	IC50 neutralization [3]	neutralization IC50 [4]	IC50 (µg/mL), pseudovirus neutralization [5]	IC50 [6]	IC50 [7]	IC50 (µg/mL), pseudovirus neutralization [8]	IC50, pseudovirus neutralization [9]	IC50, pseudovirus neutralization [10]	IC50 (µg/mL), pseudovirus neutralization [11]	IC50 (µg/mL), pseudovirus neutralization [12]	IC50 (µg/mL), pseudovirus neutralization [13]	IC50 (µg/mL), pseudovirus neutralization [14]	IC50 neutralization [15]	IC50 neutralization [16]	IC50 (µg/mL), pseudovirus neutralization [25]	also measured
5123_A06 (PGT-125) (antibody)	0.0214 µg/mL	0.0028 µg/mL	0.0359 µg/mL	2.46 µg/mL	5.47 µg/mL	0.876 µg/mL	> 50 µg/mL	> 50 µg/mL	> 50 µg/mL	0.015 µg/mL	> 50 µg/mL	0.12 µg/mL	30.1 µg/mL	0.019 µg/mL	0.0156 µg/mL	0.0106 µg/mL	–	–
5147_N06 (PGT-130) (antibody)	1.12 µg/mL	0.014 µg/mL	> 10 µg/mL	–	–	–	–	–	–	–	–	–	–	–	0.0346 µg/mL	0.0173 µg/mL	–	IC50 (µg/mL), pseudovirus neutralization [17]: > 50 µg/mL; IC50 [18]: 0.061 µg/mL; IC50 neutralization [19]: 0.02 µg/mL; IC50 neutralization [20]: 8.55 µg/mL; IC50 (µg/mL), pseudovirus neutralization [21]: > 50 µg/mL; IC50 (µg/mL), pseudovirus neutralization [22]: > 50 µg/mL; IC50 neutralization [23]: > 50 µg/mL; IC50 (µg/mL), pseudovirus neutralization [24]: 0.127 µg/mL
5136_H01 (PGT-131) (antibody)	–	–	–	–	–	–	–	–	–	–	–	–	–	–	–	–	–	IC50 (µg/mL), pseudovirus neutralization [17]: > 50 µg/mL; IC50 [18]: 0.048 µg/mL; IC50 neutralization [19]: 0.177 µg/mL; IC50 neutralization [20]: > 50 µg/mL; IC50 (µg/mL), pseudovirus neutralization [21]: > 50 µg/mL; IC50 (µg/mL), pseudovirus neutralization [22]: > 50 µg/mL; IC50 neutralization [23]: > 50 µg/mL; IC50 (µg/mL), pseudovirus neutralization [24]: 0.78 µg/mL
4993_K13 (PGT-141) (antibody)	–	–	–	–	–	–	–	–	–	–	–	–	–	–	–	–	20.3 µg/mL	–
4838_L06 (PGT-121) (antibody)	–	–	–	0.002 µg/mL	0.011 µg/mL	> 50 µg/mL	> 50 µg/mL	> 50 µg/mL	0.009 µg/mL	5.33 µg/mL	0.099 µg/mL	0.097 µg/mL	0.098 µg/mL	7.09 µg/mL	–	–	–	–
5141_B17 (PGT-126) (antibody)	0.0163 µg/mL	0.0046 µg/mL	0.0249 µg/mL	0.042 µg/mL	0.273 µg/mL	> 50 µg/mL	24.5 µg/mL	0.052 µg/mL	0.03 µg/mL	0.047 µg/mL	> 50 µg/mL	0.009 µg/mL	0.119 µg/mL	0.025 µg/mL	0.014 µg/mL	0.0076 µg/mL	–	IC50, pseudovirus neutralization [26]: 0.0181 µg/mL; IC80 (pseudovirus neutralization) [26]: 0.145 µg/mL; IC90 (pseudovirus neutralization) [26]: 0.553 µg/mL; IC95 (pseudovirus neutralization) [26]: 2.45 µg/mL; IC50, pseudovirus neutralization [27]: 0.0091 µg/mL; IC80 (pseudovirus neutralization) [27]: 0.0316 µg/mL; IC90 (pseudovirus neutralization) [27]: 0.0655 µg/mL; IC95 (pseudovirus neutralization) [27]: 0.128 µg/mL
5145_B14 (PGT-127) (antibody)	–	–	–	> 50 µg/mL	0.371 µg/mL	> 50 µg/mL	> 50 µg/mL	1.9 µg/mL	0.393 µg/mL	0.056 µg/mL	> 50 µg/mL	0.119 µg/mL	36.7 µg/mL	0.063 µg/mL	–	–	–	–
5343_B08 (PGT-135) (antibody)	0.104 µg/mL	0.157 µg/mL	> 10 µg/mL	–	–	–	–	–	–	–	–	–	–	–	> 10 µg/mL	0.0123 µg/mL	–	IC50 (µg/mL), pseudovirus neutralization [17]: > 50 µg/mL; IC50 [18]: 3.67 µg/mL; IC50 neutralization [19]: 0.011 µg/mL; IC50 neutralization [20]: > 50 µg/mL; IC50 (µg/mL), pseudovirus neutralization [21]: > 50 µg/mL; IC50 (µg/mL), pseudovirus neutralization [22]: > 50 µg/mL; IC50 neutralization [23]: > 50 µg/mL; IC50 (µg/mL), pseudovirus neutralization [24]: > 50 µg/mL
5345_I01 (PGT-137) (antibody)	–	–	–	–	–	–	–	–	–	–	–	–	–	–	–	–	–	IC50 (µg/mL), pseudovirus neutralization [17]: > 50 µg/mL; IC50 [18]: > 50 µg/mL; IC50 neutralization [19]: 0.042 µg/mL; IC50 neutralization [20]: > 50 µg/mL; IC50 (µg/mL), pseudovirus neutralization [21]: > 50 µg/mL; IC50 (µg/mL), pseudovirus neutralization [22]: > 50 µg/mL; IC50 neutralization [23]: > 50 µg/mL; IC50 (µg/mL), pseudovirus neutralization [24]: > 50 µg/mL
4980_N08 (PGT-143) (antibody)	–	–	–	–	–	–	–	–	–	–	–	–	–	–	–	–	4.77 µg/mL	–
4995_E20 (PGT-142) (antibody)	–	–	–	–	–	–	–	–	–	–	–	–	–	–	–	–	5.95 µg/mL	–
5114_A19 (PGT-128) (antibody)	–	–	–	–	–	–	–	–	–	–	–	–	–	–	–	–	–	IC50 (µg/mL), pseudovirus neutralization [17]: > 50 µg/mL; IC50 [18]: 0.006 µg/mL; IC50 neutralization [19]: 0.009 µg/mL; IC50 neutralization [20]: 0.045 µg/mL; IC50 (µg/mL), pseudovirus neutralization [21]: 0.051 µg/mL; IC50 (µg/mL), pseudovirus neutralization [22]: 3.93 µg/mL; IC50 neutralization [23]: 0.036 µg/mL; IC50 (µg/mL), pseudovirus neutralization [24]: 0.042 µg/mL
4858_P08 (PGT-123) (antibody)	0.013 µg/mL	0.0038 µg/mL	0.0328 µg/mL	0.002 µg/mL	0.015 µg/mL	> 50 µg/mL	> 50 µg/mL	> 50 µg/mL	0.009 µg/mL	11.1 µg/mL	0.307 µg/mL	0.053 µg/mL	0.039 µg/mL	16.9 µg/mL	0.0283 µg/mL	0.0031 µg/mL	–	neutralization IC50 [26]: 2.49 µg/mL; neutralization IC80 [26]: > 10 µg/mL; neutralization IC90 [26]: > 10 µg/mL; neutralization IC95 [26]: > 10 µg/mL; neutralization IC50 [27]: 0.846 µg/mL; neutralization IC80 [27]: 3.29 µg/mL; neutralization IC90 [27]: 8.56 µg/mL; neutralization IC95 [27]: > 10 µg/mL
VRC01 (antibody)	–	–	–	–	–	–	–	–	–	–	–	–	–	–	–	–	0.06 µg/mL	IC50 [11]: 0.039 µg/mL; IC50 [12]: 0.392 µg/mL
PGV04 (antibody)	–	–	–	–	–	–	–	–	–	–	–	–	–	–	–	–	0.027 µg/mL	IC50 [17]: 0.553 µg/mL
4877_D15 (PGT-122) (antibody)	0.0337 µg/mL	0.0072 µg/mL	0.0851 µg/mL	0.004 µg/mL	0.011 µg/mL	> 50 µg/mL	> 50 µg/mL	> 50 µg/mL	0.012 µg/mL	11.7 µg/mL	2.3 µg/mL	0.154 µg/mL	0.103 µg/mL	> 50 µg/mL	0.0471 µg/mL	0.0089 µg/mL	–	–
4970_K22 (PGT-144) (antibody)	–	–	–	–	–	–	–	–	–	–	–	–	–	–	–	–	> 50 µg/mL	–
1496_C09 (PG9) (TCN-109) (antibody)	–	0.161 µg/mL	0.214 µg/mL	–	–	–	–	–	–	–	–	–	–	–	–	0.113 µg/mL	14.6 µg/mL	IC50, pseudovirus neutralization [27]: 0.173 µg/mL; IC50 (µg/ml), pseudovirus neutralization [28]: 14.6 µg/mL; IC50 (µg/ml), pseudovirus neutralization [29]: 0.03 µg/mL; IC50 (µg/ml), pseudovirus neutralization [30]: 6.86 µg/mL; IC50 (µg/ml), pseudovirus neutralization [31]: 0.1 µg/mL; IC50 (µg/ml), pseudovirus neutralization [32]: 17.5 µg/mL; IC50 (µg/ml), pseudovirus neutralization [33]: 0.79 µg/mL; IC50 (µg/ml), pseudovirus neutralization [34]: 0.01 µg/mL; IC50 (µg/ml), pseudovirus neutralization [35]: 0.03 µg/mL; IC50 (µg/ml), pseudovirus neutralization [36]: 0.07 µg/mL; IC50 (µg/ml), pseudovirus neutralization [37]: 0.01 µg/mL; IC50 (µg/ml), pseudovirus neutralization [38]: 29.6 µg/mL; IC50 (µg/ml), pseudovirus neutralization [39]: 0.37 µg/mL
